Measurements as given in the supplement of paper PMC9732359.
± gives the uncertainty stated by the source.

Test: protein stability index of a GFP-peptide fusion (yeast GPS) (PSI 1-4); higher = more stable; sorted into four equal gates, so the index is relative within each strain
Details: pdr5∆
In short: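 The protein stability index combines read frequencies across sorting gates, each weighted by its gate number and then summed. To obtain those frequencies, a pooled yeast library of GFP fusions to tiled 17-residue yeast protein peptides, on a plasmid also expressing Cherry, was grown to mid-log phase in leucine-free medium. The cells were sorted into four equal gates by GFP/Cherry ratio before plasmid amplification by PCR and Illumina sequencing.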

Row | Sequence | protein stability index
1 | NTKEIAVDLEHHDYRSY [RRP6] | 3.07 ± 0.048
2 | NTLILRGPRNSREAVRH [RPL18A] | 2.89 ± 0.18
3 | NTLIPESSLTISLYFND [ECM29] | 2.19 ± 0.052
4 | NTLLVTGPFKVNGVPLR [RPL6B] | 2.66 ± 0.082

Same assay, conditions: san1∆

Row | Sequence | protein stability index
5 | NESLIPLINLALIDTEF [YML103C/NUP188] | 1.32 ± 0.15
6 | NESSLALEFVSLLLSSV [SRB4] | 1.53 ± 0.09
7 | NESSTFLKLVLSESPVD [SIN4] | 2.05 ± 0.073
8 | NETNDKKRNPSKQNGSK [PRP28] | 3.02 ± 0.051
9 | NFEKPKNSSQLLNEWSH [RPN5] | 2.88 ± 0.063
10 | NFESISARSSVHESLVT [SRB8] | 2.17 ± 0.062
11 | NFIIWINSIDTTESSDL [GRR1] | 2.61 ± 0.055
12 | NFKKFNERRKDLAERAS [SMC3] | 1.57 ± 0.11
13 | NFKMLVLLATWNLEKWR [IRR1] | 1.5 ± 0.12
14 | NFLDNCLFENDLQRLKP [ITC1] | 2.94 ± 0.048
15 | NFNKFFKIWHGEINKIC [PCI8] | 1.15 ± 0.079
16 | NFNPDNGFAPISEVMED [FAS1] | 3.2 ± 0.044
17 | NGCIFTLNPKTGHLFLK [PRP8] | 2.98 ± 0.083
18 | NGDEGDDENEPKRKRRL [YOR098C/NUP1] | 3.17 ± 0.083
19 | NGDKMPLKFKLGPLSYQ [YJR042W/NUP85] | 3.02 ± 0.096
20 | NGGKFSKSNLIHNYDSK [RGR1] | 3.11 ± 0.047
21 | NGGLIHVVTREKGPQVC [RPO21] | 2.37 ± 0.13
22 | NGLGTSHINTNVGDNNS [ARP7] | 2.74 ± 0.082
23 | NGTVNNNSALSNVNSDI [RPT3] | 1.81 ± 0.087
24 | NHVMYTEVSRKSMKYVK [ECM29] | 2.27 ± 0.078
25 | NIAFDAHMSIGCLHKGK [YML031W/NDC1] | 1.55 ± 0.15
26 | NIERKQTRKEYNTSILE [SIN4] | 3.05 ± 0.081
27 | NIFKAEMDSVSKSMKFS [CSN9] | 2.71 ± 0.051
28 | NIIQAKRDAKAAGSYYV [RPL7A] | 3.11 ± 0.057
29 | NIKFLSKLEGTINKAVQ [ESC2] | 2.72 ± 0.1

Row | Sequence | protein stability index
30 | NIKPVEQHHINNLKNSG [GAL11] | 2.36 ± 0.069
31 | NIMVTIDGCVKIGDLGL [SSN3] | 3.5 ± 0.069
32 | NISHLLEIASSIDCLLI [SWI1] | 2.29 ± 0.078
33 | NISISTSELGNDDFSEV [BRR2] | 2.46 ± 0.078
34 | NISNAKLANFFSKKGNE [YAR002W/NUP60] | 2.88 ± 0.07
35 | NIVKLCFVHRYKDVSDL [IRR1] | 2.87 ± 0.055
36 | NIVSDAGANDTSNNETN [GRR1] | 1.82 ± 0.15
37 | NKAQAKMDKRAKNSDSA [RPL8A] | 3.27 ± 0.047
38 | NKAQAKMDKRAKTSDSA [RPL8B] | 3.27 ± 0.066
39 | NKASLAQYEVLANYLTS [QCR2] | 2.5 ± 0.075
40 | NKGWKLQSLNESKDLLR [SRB4] | 2.32 ± 0.11
41 | NKIIPNVGLCITIYDLL [RPC25] | 1.29 ± 0.13
42 | NKKIYQWNKLTSFDIKR [POP6] | 2.18 ± 0.2
43 | NKKLIKKLSKKYNAFIA [RPL1A] | 1.45 ± 0.12
44 | NKLGALKTNFETEWNLQ [RPB11] | 3.22 ± 0.12
45 | NKNGNAVCSTATVVSTN [PGD1] | 2.3 ± 0.073
46 | NKTNNEDLFDDYPSTSL [NUT1] | 2.85 ± 0.12
47 | NKYQIKKAVKELYEVDV [RPL25] | 3.12 ± 0.042
48 | NLKYLDNSNVMTVKLES [RGR1] | 2.04 ± 0.19
49 | NLLKFITSNHKSSVPGS [RPN3] | 2.07 ± 0.067
50 | NLMILNTKVPVDIVNQW [YML103C/NUP188] | 1.84 ± 0.13
51 | NLQREIDQAHVSEITKL [RPN14] | 2.75 ± 0.054
52 | NLQTADTVIIFDTDWNP [SNF2] | 2.8 ± 0.078
53 | NLQVELLSEHDDHNGEV [YGL100W/SEH1] | 2.83 ± 0.06
54 | NLRLKILTIIEEYKKSL [GRR1] | 1.86 ± 0.083

Row | Sequence | protein stability index
55 | NLSVTSPYNADFDGDEM [RPO21] | 2.96 ± 0.061
56 | NLTRGINLRKVAEKMNG [RPT6] | 2.31 ± 0.052
57 | NLVKEKEALQNNIFKEF [SMC1] | 2.99 ± 0.12
58 | NMLLDPAANESEVANNG [RRP42] | 2.64 ± 0.083
59 | NMPNCDYLTLNKVVVNL [RPN2] | 2.58 ± 0.068
60 | NNANVLGGEINDNEDDD [BRR2] | 3.3 ± 0.072
61 | NNAVRFSKQCLISNAIY [ECM29] | 1.82 ± 0.11
62 | NNCEDFVSRPDRTMLAP [FAS1] | 2.93 ± 0.26
63 | NNDFKLSIDKVLKKPNR [RET1] | 3.01 ± 0.1
64 | NNDGSYGLFLKYHKEQF [SRB8] | 2.12 ± 0.12
65 | NNESNKNNNGDEKNKNN [MED2] | 3.33 ± 0.038
66 | NNGSKDHGDGILLIDSE [RPN9] | 3.38 ± 0.063
67 | NNIRQAICRYANVIKAL [RRP4] | 1.17 ± 0.14
68 | NNKFANKIIPNVGLCIT [RPC25] | 2.94 ± 0.054
69 | NNLEPRQTTSNTGLLNK [RPN11] | 3.14 ± 0.044
70 | NNLKNSGNSANNMNVNM [GAL11] | 2.87 ± 0.035
71 | NNLSNQLETLTGSIRHR [CSE2] | 3.04 ± 0.049
72 | NNNNSTRPQMPSRTRET [GRR1] | 2.949 ± 0.024
73 | NNQQRLLLKKLDNFQKS [SMC3] | 2.41 ± 0.054
74 | NNTKAGRRKTWKRQNTL [RPL15A] | 2.44 ± 0.083
75 | NNTNNANSSITPAFGSN [YJL041W/NSP1] | 2.86 ± 0.11
76 | NNTTTTSTKPSFSFGAP [YOR098C/NUP1] | 3.04 ± 0.056
77 | NNVDNKYKSGGKFSFSP [SSN2] | 2.63 ± 0.064
78 | NPLADAEEALEPSYIFE [PRE4] | 3.08 ± 0.055
79 | NPNPSSQRAQVVTMSVK [RPC37] | 2.1 ± 0.068

Row | Sequence | protein stability index
80 | NQIADLSGKFSTIPTRE [ROX3] | 2.81 ± 0.071
81 | NQIQRQQQQQFRHHVQI [SNF5] | 1.88 ± 0.085
82 | NQKIPDNVIVINHKINN [SIR3] | 1.79 ± 0.066
83 | NQNQRNVNETMSRSLAN [SMC3] | 3.15 ± 0.059
84 | NQQPQQQQQQQQNPKFL [SWI1] | 2.989 ± 0.026
85 | NQQQPPQDILSKLYLLL [SNF11] | 2.47 ± 0.056
86 | NQSAYEWNGKSFQKKSN [ISW2] | 3.09 ± 0.064
87 | NRYAYVLSSLMFANMKV [LRP1] | 2.08 ± 0.068
88 | NSDDFFMDNSYDIDEID [ESC2] | 2.64 ± 0.075
89 | NSEKYYDEDPYGFEDES [RPB2] | 3.27 ± 0.066
90 | NSGIIPGNRNADNVDKI [FAS2] | 3.03 ± 0.091
91 | NSIDVPIRINSTEEIEY [YMR129W/POM152] | 2.01 ± 0.071
92 | NSILSVRDPWSIDFRTY [SRB2] | 2.48 ± 0.22
93 | NSKMPTRFPPAVFYTPK [PRP8] | 2.94 ± 0.054
94 | NSMDMVDGMAKVPIGLI [RGR1] | 2.99 ± 0.15
95 | NSNDSVFVGSGKGTGKT [BRR2] | 3.32 ± 0.1
96 | NSNGIAMASLYLTGGQQ [SMD1] | 2.63 ± 0.063
97 | NSPSKGNSERPSAVAGF [YIL149C/MLP2] | 3.1 ± 0.089
98 | NSPSSALRALQENGTIF [YDL088C/ASM4] | 1.53 ± 0.069
99 | NSSSSTPNTNSNSTPNA [SWI1] | 3.12 ± 0.069
100 | NSTDGAKITEIGSTSKR [YIL149C/MLP2] | 3.01 ± 0.074
101 | NTHYHADYRLILTGTPL [SNF2] | 1.39 ± 0.12
102 | NTKEIAVDLEHHDYRSY [RRP6] | 3.15 ± 0.056
103 | NTLIPESSLTISLYFND [ECM29] | 1.99 ± 0.061
104 | NTLLVTGPFKVNGVPLR [RPL6B] | 2.63 ± 0.081
